Results taken from patent publication US20250326860A1 (ADAGENE PTE, published 2025).

Key:
[1] = target: T1, human CD3 on cells (Jurkat cells, human T cells) (human, UniProt P07766 23-207); experiment: cell-based or functional assay
[2] = target: T1, human CD3 on cells (Jurkat cells, human …); experiment: flow cytometry, human CD3+ T cells
From the text: (§1) Human PBMCs were freshly isolated from the blood of healthy donors by density gradient centrifugation using Histopaque-1077 (Sigma). Human CD3+ T cells were further isolated from PBMCs using the Human T Cell Enrichment Kit (Stem Cell Technologies). Monkey PBMCs were isolated from a naïve cynomolgus monkey by density gradient centrifugation using Histopaque-1077 (Sigma). Monkey CD3+ T cells were isolated from PBMCs using the Pan T Cell Isolation Kit Non-Human Primate (Miltenyi Biotec). Purified human or monkey CD3+ T cells were stained with the testing antibodies as the primary antibody and the APC-labelled anti-human-Fc antibody (BioLegend) as the secondary antibody. After washing, the cells were analyzed on the CytoFLEX flow cytometer (Beckman Coulter) and the data was analyzed by FlowJo software.

[3] = target: T2, cynomolgus monkey CD3 on T cells (cynomolgus monkey, UniProt Q95LI5 22-198); experiment: flow cytometry, monkey CD3+ T cells
T2 construct: whole, on cells
From the text: as §1

[4] = target: T3, human CD20 on cells (human B cells; Raji, SU-DHL-8, SU-DHL-4, A3KAW, NAMALWA) (human, UniProt P11836 1-297); experiment: flow cytometry, human B cells
T3 construct: whole, on cells
T3 sequence (looked up): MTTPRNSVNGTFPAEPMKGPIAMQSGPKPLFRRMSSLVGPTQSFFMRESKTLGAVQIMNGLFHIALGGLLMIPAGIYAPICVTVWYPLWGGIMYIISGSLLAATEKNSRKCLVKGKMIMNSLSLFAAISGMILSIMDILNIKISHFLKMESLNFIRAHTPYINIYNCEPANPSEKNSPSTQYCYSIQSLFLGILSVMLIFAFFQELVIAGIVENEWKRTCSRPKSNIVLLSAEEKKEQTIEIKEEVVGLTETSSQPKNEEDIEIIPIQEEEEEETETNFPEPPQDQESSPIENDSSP
From the text: (§2) Human and monkey PBMCs were isolated as mentioned above. Human B cells were further isolated from PBMCs using the EasySep™ Human B Cell Isolation Kit (Stem Cell Technologies). Monkey B cells were isolated from PBMCs using the Non-Human B Primate Cell Isolation Kit (Stem Cell Technologies). Purified human or monkey B cells were stained with the testing antibodies as the primary antibody and the APC-labelled anti-human-Fc antibody (BioLegend) as the secondary antibody. After washing, the cells were analyzed on the CytoFLEX flow cytometer (Beckman Coulter) and the data was analyzed by FlowJo software.

[5] = target: T3, human CD20 on cells (human B cells; …); experiment: flow cytometry, A3KAW cells
Experimental: (§3) Raji, SU-DHL-8, SU-DHL-4, A3KAW and NAMALWA were B-cell lymphoma cell lines with various CD20 expression levels on cell surface. Briefly, the test antibodies were serial diluted and were incubated with the tumor cells on ice. After washing, the cells were subsequently incubated with the APC-labelled anti-human-Fc secondary antibody (BioLegend) on ice. The cells were then washed with PBS prior to analysis by the CytoFLEX flow cytometer (Beckman Coulter). The data was analyzed by FlowJo software.

[6] = target: T3, human CD20 on cells (human B cells; …); experiment: flow cytometry, NAMALWA cells
Experimental: as §3

[7] = target: T3, human CD20 on cells (human B cells; …); experiment: flow cytometry, SU-DHL-4 cells
Experimental: as §3

[8] = target: T4, cynomolgus monkey CD20 on B cells (cynomolgus monkey, UniProt M4ZHZ6 1-297); experiment: flow cytometry, monkey B cells
T4 construct: whole, on cells
T4 sequence: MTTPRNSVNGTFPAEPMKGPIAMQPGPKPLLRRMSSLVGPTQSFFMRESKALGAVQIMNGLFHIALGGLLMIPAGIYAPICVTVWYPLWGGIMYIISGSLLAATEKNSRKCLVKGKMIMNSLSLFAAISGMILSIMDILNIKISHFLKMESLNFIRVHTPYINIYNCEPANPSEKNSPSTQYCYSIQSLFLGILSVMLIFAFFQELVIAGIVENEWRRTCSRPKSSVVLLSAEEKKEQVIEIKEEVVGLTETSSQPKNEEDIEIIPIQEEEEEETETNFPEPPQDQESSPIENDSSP
From the text: as §2

[9] = target: T3, human CD20 on cells (human B cells; …); experiment: flow cytometry, SU-DHL-8 cells
Experimental: as §3

[10] = target: T3, human CD20 on cells (human B cells; …); experiment: flow cytometry, Raji cells
Experimental: as §3

T1 sequence (P07766 23-207): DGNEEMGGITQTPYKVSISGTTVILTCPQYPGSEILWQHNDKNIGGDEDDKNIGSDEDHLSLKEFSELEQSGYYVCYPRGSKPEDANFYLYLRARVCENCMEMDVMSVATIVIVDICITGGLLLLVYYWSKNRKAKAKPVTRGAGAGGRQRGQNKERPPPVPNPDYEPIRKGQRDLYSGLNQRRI
T2 sequence (Q95LI5 22-198): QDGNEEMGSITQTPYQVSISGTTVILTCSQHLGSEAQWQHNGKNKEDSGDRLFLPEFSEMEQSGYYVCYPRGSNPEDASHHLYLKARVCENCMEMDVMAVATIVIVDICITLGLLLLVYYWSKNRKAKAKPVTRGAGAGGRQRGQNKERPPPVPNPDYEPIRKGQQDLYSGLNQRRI

B1: TY23118 (antibody)
light: EVGSYDADDPDCPADNNHCHYSGRSAGGGGTPLGLAGSGGSQAVVTQEPSLTVSPGGTVTLTCGSSTGAVTTSNYANWVQQKPGQAPRGLIGGTNKRAPGVPARFSGSLLGGKAALTLSGAQPEDEAEYYCALWYSNLWVFGGGTKLTVLRTVAAPSVFIFPPSDEQLKSGTASVVCLLNNFYPREAKVQWKVDNALQSGNSQESVTEQDSKDSTYSLSSTLTLSKADYEKHKVYACEVTHQGLSSPVTKSFNRGEC
heavy: not shown
[1]
  Jurkat NFAT reporter assay EC50: 7.9 nM
  Masking efficiency (Jurkat NFAT reporter assay): 419 fold

B2: TY23110 (antibody)
light: EVGSYAPHDPDCPADPPSCYPSGRSAGGGGTPLGLAGSGGSQAVVTQEPSLTVSPGGTVTLTCGSSTGAVTTSNYANWVQQKPGQAPRGLIGGTNKRAPGVPARFSGSLLGGKAALTLSGAQPEDEAEYYCALWYSNLWVFGGGTKLTVLRTVAAPSVFIFPPSDEQLKSGTASVVCLLNNFYPREAKVQWKVDNALQSGNSQESVTEQDSKDSTYSLSSTLTLSKADYEKHKVYACEVTHQGLSSPVTKSFNRGEC
heavy: not shown
[1]
  Jurkat NFAT reporter assay EC50: 3.6 nM
  Masking efficiency (Jurkat NFAT reporter assay): 191 fold

B3: TY23115 (antibody)
light: EVGSYPYDDPDCPSHDSDCDNSGRSAGGGGTPLGLAGSGGSQAVVTQEPSLTVSPGGTVTLTCGSSTGAVTTSNYANWVQQKPGQAPRGLIGGTNKRAPGVPARFSGSLLGGKAALTLSGAQPEDEAEYYCALWYSNLWVFGGGTKLTVLRTVAAPSVFIFPPSDEQLKSGTASVVCLLNNFYPREAKVQWKVDNALQSGNSQESVTEQDSKDSTYSLSSTLTLSKADYEKHKVYACEVTHQGLSSPVTKSFNRGEC
heavy: not shown
[1]
  Jurkat NFAT reporter assay EC50: 7.7 nM
  Masking efficiency (Jurkat NFAT reporter assay): 409 fold

B4: TY25715 (bispecific antibody, human IgG1, kappa, N297A)
light: QIVLSQSPAILSASPGEKVTMTCRASSSVSYIHWFQQKPGKSPKPWIYATSNLASGVPVRFSGSGSGTSYSLTISRVEAEDAATYYCQQWTSNPPTFGGGTKVEIKRTVAAPSVFIFPPSDEQLKSGTASVVCLLNNFYPREAKVQWKVDNALQSGNSQESVTEQDSKDSTYSLSSTLTLSKADYEKHKVYACEVTHQGLSSPVTKSFNRGEC
heavy: EVQLVQSGAEVKKPGSSVKVSCKASGYTFTSYNMHWVRQAPGKGLEWIGAIYPGSGDTSYNQKFKGRVTITADKSTSTAYMELSSLRSEDTAVYYCARSTYYGGDWYFNVWGQGTLVTVSSASTKGPSVFPLAPSSKSTSGGTAALGCLVKDYFPEPVTVSWNSGALTSGVHTFPAVLQSSGLYSLSSVVTVPSSSLGTQTYICNVNHKPSNTKVDKKVEPKSCDKTHTCPPCPAPELLGGPSVFLFPPKPKDTLMISRTPEVTCVVVDVSHEDPEVKFNWYVDGVEVHNAKTKPREEQYASTYRVVSVLTVLHQDWLNGKEYKCKVSNKALPAPIEKTISKAKGQPREPQVYTLPPSRKKLTKNQVKLTCLVKGFYPSDIAVEWESNGQPENNYKTTPPVLDCDGSFFLYSKLTVDKSRWQQGNVFSCSVMHEALHNHYTQKSLSLSPGK
chain: EAVVTQEPSLTVSPGGTVTLTCGSSTGAVTTSNYPNWVQQKPGQAPRGLIGGTNKRAPGTPARFSGSLLGGKAALTLSGAQPEDEAEYYCALWYSDLWVFGGGTKLTVLGGGGSGGGGSGGGGSGGGGSEVQLVESGGGLVQPGGSLRLSCAASGFTFSTYAINWVRQAPGKGLEWVSRIRSKYNNYATYYAESVKDRFTISRDDSKNTLYLQINSLRAEDTAVYYCVRHGNFGTSYVSWFAYWGQGTLVTVSSEPKSSDKTHTCPPCPAPELLGGPSVFLFPPKPKDTLMISRTPEVTCVVVDVSHEDPEVKFNWYVDGVEVHNAKTKPREEQYASTYRVVSVLTVLHQDWLNGKEYKCKVSNKALPAPIEKTISKAKGQPREPQVYTDPPSRDELTKNQVSLTCLVDGFYPSDIAVEWESNGQPENCYKTTPPVLDSDGSFFLYSKLTVDKSRWQQGNVFSCSVMHEALHNHYTQDSLSLSPGK
notes: also called parental CD20xCD3 bispecific antibody of TY25716
[2]
  EC50: 28.8 nM
  max MFI: 2260 MFI
[3]
  EC50: 20.7 nM
  max MFI: 1120 MFI

B5: TY25716 (bispecific antibody, human IgG1, kappa, N297A)
light: QIVLSQSPAILSASPGEKVTMTCRASSSVSYIHWFQQKPGKSPKPWIYATSNLASGVPVRFSGSGSGTSYSLTISRVEAEDAATYYCQQWTSNPPTFGGGTKVEIKRTVAAPSVFIFPPSDEQLKSGTASVVCLLNNFYPREAKVQWKVDNALQSGNSQESVTEQDSKDSTYSLSSTLTLSKADYEKHKVYACEVTHQGLSSPVTKSFNRGEC
heavy: EVQLVQSGAEVKKPGSSVKVSCKASGYTFTSYNMHWVRQAPGKGLEWIGAIYPGSGDTSYNQKFKGRVTITADKSTSTAYMELSSLRSEDTAVYYCARSTYYGGDWYFNVWGQGTLVTVSSASTKGPSVFPLAPSSKSTSGGTAALGCLVKDYFPEPVTVSWNSGALTSGVHTFPAVLQSSGLYSLSSVVTVPSSSLGTQTYICNVNHKPSNTKVDKKVEPKSCDKTHTCPPCPAPELLGGPSVFLFPPKPKDTLMISRTPEVTCVVVDVSHEDPEVKFNWYVDGVEVHNAKTKPREEQYASTYRVVSVLTVLHQDWLNGKEYKCKVSNKALPAPIEKTISKAKGQPREPQVYTLPPSRKKLTKNQVKLTCLVKGFYPSDIAVEWESNGQPENNYKTTPPVLDCDGSFFLYSKLTVDKSRWQQGNVFSCSVMHEALHNHYTQKSLSLSPGK
chain: EVGSYPYDDPDCPSHESDCDQGGGPLGLAGGSEAVVTQEPSLTVSPGGTVTLTCGSSTGAVTTSNYPNWVQQKPGQAPRGLIGGTNKRAPGTPARFSGSLLGGKAALTLSGAQPEDEAEYYCALWYSDLWVFGGGTKLTVLGGGGSGGGGSGGGGSGGGGSEVQLVESGGGLVQPGGSLRLSCAASGFTFSTYAINWVRQAPGKGLEWVSRIRSKYNNYATYYAESVKDRFTISRDDSKNTLYLQINSLRAEDTAVYYCVRHGNFGTSYVSWFAYWGQGTLVTVSSEPKSSDKTHTCPPCPAPELLGGPSVFLFPPKPKDTLMISRTPEVTCVVVDVSHEDPEVKFNWYVDGVEVHNAKTKPREEQYASTYRVVSVLTVLHQDWLNGKEYKCKVSNKALPAPIEKTISKAKGQPREPQVYTDPPSRDELTKNQVSLTCLVDGFYPSDIAVEWESNGQPENCYKTTPPVLDSDGSFFLYSKLTVDKSRWQQGNVFSCSVMHEALHNHYTQDSLSLSPGK
[4]
  EC50: 14.5 nM
  max MFI: 50000 MFI
[5]
  EC50: 220 nM
  Max MFI: 967000 MFI
[6]
  EC50: 162 nM
  Max MFI: 647000 MFI
[7]
  EC50: 14.6 nM
  Max MFI: 2.48e+06 MFI
[8]
  EC50: 13.5 nM
  max MFI: 28100 MFI
[9]
  EC50: 37.2 nM
  Max MFI: 5280 MFI
[10]
  EC50: 28 nM
  Max MFI: 23500 MFI
